From article PMC8991256

Target: LH1–RC core complex, monomeric component of the native dimer (Rhodobacter sphaeroides f. sp. denitrificans strain IL106 (endogenous)) (UniProt Q3J1A4)
Test: cryo-EM structure; native dimeric LH1–RC from Rba. sphaeroides IL106 in DDM, ~5 mg/ml; C1 symmetry, 2.75 Å

stoichiometry N: 2
Substance: LH1–RC core complex, monomeric component of the native dimer (from UniProt Q3J1A4 1-58; Q3J1A3 1-49; P0C0Y8 1-282; P0C0Y9 1-308; P0C0Y7 1-260; P13402 1-82)
